This is an account of results in publication PMC8939767 (2022).

A word on the Kd: it is the equilibrium constant for the complex coming apart.

Holding throughout (assay): BLI
A general note: BLI is a label-free optical method that tracks binding on a fibre tip over time.

Test [1] deals with T1, HCoV-HKU1 soluble spike ectodomain protein (HCoV-HKU1, UniProt Q5MQD0 13-1300).
T1 chain: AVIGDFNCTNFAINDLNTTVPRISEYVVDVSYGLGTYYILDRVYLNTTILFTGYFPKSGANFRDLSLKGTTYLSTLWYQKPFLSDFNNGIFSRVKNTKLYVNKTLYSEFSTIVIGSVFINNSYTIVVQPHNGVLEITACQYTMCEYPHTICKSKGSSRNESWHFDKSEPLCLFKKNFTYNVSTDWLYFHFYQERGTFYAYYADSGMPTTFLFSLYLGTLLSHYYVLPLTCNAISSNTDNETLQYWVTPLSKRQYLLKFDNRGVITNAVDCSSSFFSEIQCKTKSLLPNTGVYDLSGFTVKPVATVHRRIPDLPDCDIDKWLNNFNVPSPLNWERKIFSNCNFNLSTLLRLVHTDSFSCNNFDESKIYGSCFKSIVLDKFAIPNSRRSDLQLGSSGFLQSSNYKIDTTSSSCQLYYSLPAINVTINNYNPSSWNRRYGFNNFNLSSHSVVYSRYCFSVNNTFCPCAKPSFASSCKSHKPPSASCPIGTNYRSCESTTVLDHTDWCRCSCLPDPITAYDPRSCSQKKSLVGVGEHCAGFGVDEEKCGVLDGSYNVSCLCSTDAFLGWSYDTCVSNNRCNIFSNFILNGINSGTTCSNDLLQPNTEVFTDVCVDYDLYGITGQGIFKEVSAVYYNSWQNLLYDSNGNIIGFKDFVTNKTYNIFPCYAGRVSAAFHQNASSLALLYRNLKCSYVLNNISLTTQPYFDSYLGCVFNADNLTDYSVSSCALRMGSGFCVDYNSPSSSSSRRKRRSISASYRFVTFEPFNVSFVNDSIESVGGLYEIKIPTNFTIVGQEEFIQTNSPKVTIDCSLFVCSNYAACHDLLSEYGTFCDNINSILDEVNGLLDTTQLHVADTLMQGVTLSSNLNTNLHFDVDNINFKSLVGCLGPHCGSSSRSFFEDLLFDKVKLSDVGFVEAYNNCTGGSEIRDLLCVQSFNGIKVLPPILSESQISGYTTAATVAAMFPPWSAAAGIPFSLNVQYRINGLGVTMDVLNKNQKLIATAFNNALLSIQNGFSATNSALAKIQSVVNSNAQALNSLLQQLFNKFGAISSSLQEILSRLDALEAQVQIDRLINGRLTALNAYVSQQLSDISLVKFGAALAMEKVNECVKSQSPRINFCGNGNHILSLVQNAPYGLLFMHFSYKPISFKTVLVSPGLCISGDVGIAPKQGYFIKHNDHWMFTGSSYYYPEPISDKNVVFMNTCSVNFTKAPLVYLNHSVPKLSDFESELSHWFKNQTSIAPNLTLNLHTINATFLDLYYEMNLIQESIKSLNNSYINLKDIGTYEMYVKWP

Test [2] has as its target HCoV-OC43 soluble spike protein.
Test [3] concerns the target SARS-CoV-2 soluble spike protein.
Test [4] addresses SARS-CoV-1 soluble spike protein.

B1: CC40.8 broadly neutralizing antibody (IgG) (antibody, V domains shown)
VH: EVQLLESGGGLVQPGGSLRLSCAASGFTFSSYVMTWARQAPGKGLEWVSAISGTGYTYYADSVKGRFTVSRDNSKNTLFLQMSSLRAEDTAVYYCAITMAPVVWGQGTTVTVSS
VL: SYELTQPPSVSVSPGQTARITCSGDALPKRYAYWYQQKSGQAPILVIYEDKKRPSGIPERLSGSKSGTVATLTISGAQVEDEADYYCYSTDSSGNHAVFGGGTQLTVL
For B1, the Kd in test [1] is < 1 pM; in test [2], ~10 nM; in test [3], < 1 pM; in test [4], < 1 pM.
